According to patent US20220411487A1 (Regeneron, published 2022):

T1: full-length mouse TMPRSS6 with a C-terminal triple myc tag on HEK293.hHJV cells (HEK293.hHJV/3xMyc.mTMPRSS6) (mouse, UniProt Q9DBI0 1-811)
T1 sequence: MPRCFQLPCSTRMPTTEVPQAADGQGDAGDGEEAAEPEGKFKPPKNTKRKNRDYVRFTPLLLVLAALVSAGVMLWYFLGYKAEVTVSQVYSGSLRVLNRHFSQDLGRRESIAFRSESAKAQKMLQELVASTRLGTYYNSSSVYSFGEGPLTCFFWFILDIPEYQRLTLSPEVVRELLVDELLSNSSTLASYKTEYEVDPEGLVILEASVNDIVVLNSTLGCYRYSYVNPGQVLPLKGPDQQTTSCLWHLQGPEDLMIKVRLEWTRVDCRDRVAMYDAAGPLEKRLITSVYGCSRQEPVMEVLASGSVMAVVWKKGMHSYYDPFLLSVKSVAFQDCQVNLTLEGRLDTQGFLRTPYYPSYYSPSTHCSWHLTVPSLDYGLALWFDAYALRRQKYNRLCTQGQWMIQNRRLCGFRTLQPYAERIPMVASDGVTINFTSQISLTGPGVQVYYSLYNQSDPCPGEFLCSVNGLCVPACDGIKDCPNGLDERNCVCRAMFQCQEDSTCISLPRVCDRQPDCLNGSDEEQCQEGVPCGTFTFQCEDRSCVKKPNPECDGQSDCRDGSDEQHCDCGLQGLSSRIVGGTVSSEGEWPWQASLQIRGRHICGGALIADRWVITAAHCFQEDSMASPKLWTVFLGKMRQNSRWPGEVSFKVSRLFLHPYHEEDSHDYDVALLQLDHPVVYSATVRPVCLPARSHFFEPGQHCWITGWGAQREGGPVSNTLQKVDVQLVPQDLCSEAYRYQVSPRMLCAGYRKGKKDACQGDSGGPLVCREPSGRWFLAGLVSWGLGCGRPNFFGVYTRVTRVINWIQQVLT

T2: full length human TMPRSS6 with a C-terminal triple myc tag on HEK293.hHJV cells (HEK293.hHJV/3xMyc.hTMPRSS6) (human, UniProt Q8IU80 1-811)
T2 sequence: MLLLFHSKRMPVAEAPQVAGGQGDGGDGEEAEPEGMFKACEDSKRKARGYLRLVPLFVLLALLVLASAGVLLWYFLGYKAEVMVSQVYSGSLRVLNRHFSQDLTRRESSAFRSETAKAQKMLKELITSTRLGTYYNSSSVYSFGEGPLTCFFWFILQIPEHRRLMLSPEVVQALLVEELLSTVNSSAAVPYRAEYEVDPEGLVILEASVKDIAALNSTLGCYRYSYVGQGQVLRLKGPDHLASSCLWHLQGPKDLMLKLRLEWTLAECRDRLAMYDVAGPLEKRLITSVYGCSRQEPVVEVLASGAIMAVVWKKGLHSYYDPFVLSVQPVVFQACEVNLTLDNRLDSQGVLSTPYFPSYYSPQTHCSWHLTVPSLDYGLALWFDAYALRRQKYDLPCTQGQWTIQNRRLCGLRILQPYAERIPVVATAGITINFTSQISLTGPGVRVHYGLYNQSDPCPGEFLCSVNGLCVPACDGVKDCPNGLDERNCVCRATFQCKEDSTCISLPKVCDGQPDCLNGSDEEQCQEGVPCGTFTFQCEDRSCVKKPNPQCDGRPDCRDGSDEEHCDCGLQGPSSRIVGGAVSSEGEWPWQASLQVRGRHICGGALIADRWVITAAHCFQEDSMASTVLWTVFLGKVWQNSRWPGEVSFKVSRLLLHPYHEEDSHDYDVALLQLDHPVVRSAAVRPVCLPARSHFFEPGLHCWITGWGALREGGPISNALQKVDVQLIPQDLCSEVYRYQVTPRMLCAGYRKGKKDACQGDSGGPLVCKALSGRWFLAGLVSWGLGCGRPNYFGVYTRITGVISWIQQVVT

T3: full length cynomolgous monkey TMPRSS6 on HEK293 cells (HEK293/mfTMPRSS6) (cynomolgous monkey/Macaca fascicularis, UniProt Q8IU80 10-811 (human entry))
T3 chain: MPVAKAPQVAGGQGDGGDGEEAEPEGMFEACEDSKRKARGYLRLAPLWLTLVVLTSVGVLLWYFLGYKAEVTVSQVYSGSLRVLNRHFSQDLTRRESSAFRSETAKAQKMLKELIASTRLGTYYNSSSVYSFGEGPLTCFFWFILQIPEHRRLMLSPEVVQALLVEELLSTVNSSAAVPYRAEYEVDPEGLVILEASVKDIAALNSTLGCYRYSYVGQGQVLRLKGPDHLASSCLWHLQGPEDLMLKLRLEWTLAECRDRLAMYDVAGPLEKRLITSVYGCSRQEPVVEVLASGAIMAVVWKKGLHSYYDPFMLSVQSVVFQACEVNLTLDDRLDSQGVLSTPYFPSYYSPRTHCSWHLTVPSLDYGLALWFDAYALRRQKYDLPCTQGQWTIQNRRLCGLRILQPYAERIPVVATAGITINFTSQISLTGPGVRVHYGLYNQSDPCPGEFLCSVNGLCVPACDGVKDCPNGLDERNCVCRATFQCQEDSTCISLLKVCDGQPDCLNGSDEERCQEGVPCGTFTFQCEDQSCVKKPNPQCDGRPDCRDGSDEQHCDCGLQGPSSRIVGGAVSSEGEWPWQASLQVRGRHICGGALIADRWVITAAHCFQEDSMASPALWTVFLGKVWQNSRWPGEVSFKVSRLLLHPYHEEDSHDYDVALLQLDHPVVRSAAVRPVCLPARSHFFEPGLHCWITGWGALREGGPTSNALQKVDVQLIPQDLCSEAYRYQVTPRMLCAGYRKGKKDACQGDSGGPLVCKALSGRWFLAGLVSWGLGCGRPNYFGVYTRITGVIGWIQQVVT


Legend:
Assay in all cases: cell-based or functional assay
[1] = target: T1, full-length mouse TMPRSS6 with a …
[2] = target: T2, full length human TMPRSS6 with a …
[3] = target: T3, full length cynomolgous monkey TMPRSS6 …

| Inhibition (%) of soluble hHJV release (ELISA) [1] [%] | IC50, soluble hHJV release (ELISA) [2] [nM] | Inhibition (%) of soluble hHJV release (ELISA) [2] [%] | % inhibition, HEK293 bioassay, overnight pre-incubation 37 C [3] [%] | IC50, HEK293 bioassay, overnight pre-incubation 37 C [3] [nM] | IC50, soluble hHJV release (ELISA) [1] [nM] | Binder |
| --- | --- | --- | --- | --- | --- | --- |
| 46.4 | 0.127 | > 99 | 81 | > 10 | – | REGN7977 (antibody, V domains shown, fully human; human IgG4 Fc with hinge S108P; also called mAb41465) VH: EVQLVESGGGLVKPGGSLRVSCAASGVTFSNVWMSWVRQVPGKGLEWVGRIKSKTDGGTTDYAAPVKGRFTISKDDSKNTLFLQMNSLKTEDTAVYYCTTETGDFWSGYYPRFQHWGQGTLVTVSS VL: DIQMTQSPSSLSASVGDRVTITCRASQYISTYLNWYQQKPGKAPSLLIYAASSLQSGVPSRFSGSGSGTDFTLTISSLQPEDFASYSCQQSYSTPPYTFGQGTKLEIKR |
| 98.5 | 0.102 | > 99 | 91 | 21 | 0.0826 | REGN7999 (antibody, human IgG4 S228P, kappa, V domains shown, fully human; human IgG4 Fc with hinge S108P; also called mAb41450) VH: EVQLVESGGGLVQPGGSLRLSCAASGFTFSSYAMTWVRQAPGKGLEWVSAISGSDTSTYYADSVKGRFTISRDNSKNTLFLQMNSLRAEDTAVYYCAKHQDYDFSYYYSAMDVWGQGTTVTVSS VL: DIQMTQSPSSLSASVGDRVIITCRASQDFNSWLAWYQQKPGKAPKLLIYAASSLQSGVPSRFSGSGSGTDFTLTISSLQPEDFATYYCQQTDSFPFTFGPGTKVDIKR |
| 42 | 0.149 | > 99 | 91 | 2.8 | 0.274 | REGN8023 (antibody, human IgG4 S228P, kappa, V domains shown, fully human; human IgG4 Fc with hinge S108P; also called mAb37699) VH: EVQLVESGGGLVKPGGSLRISCAASGFIFVDYAMHWVRQAPGKGLEWVSGISWNSGSIGYADSVKGRFTISRDNAKKSLYLQMSGLRPEDTALYYCVKSGFYYVRSYFDNWGQGTLVTVSS VL: DIVMTQSPLSLPVTPGEPASISCRSSQSLLDSDDGNTYLDWYLRKPGQSPQLLIYTLSYRASGVPDRFSGSGSGTDFTLKISRVEADDVGVYYCMQRIEFPLTFGGGTKVEIKR |
| 11.8 | 0.154 | > 99 | 31 | > 10 | – | REGN7974 (antibody, human IgG4 S228P, kappa, V domains shown, fully human; human IgG4 Fc with hinge S108P; also called mAb41422) VH: EVQLVESGGGLVQPGRSLRLSCIASGFNFGDYGMSWVRQAPGKGLEWVGFIRSKAYGGTTEYAASVKGRFTISRDDSKSIAYLQMNSLKTEDAAMYYCSRDYYDILTGYYGDYWGQGTLVTVSS VL: not shown |
| < 1 | 0.0712 | > 99 | 89 | 13 | – | REGN7969 (antibody, human IgG4 S228P, kappa, V domains shown, fully human; human IgG4 Fc with hinge S108P; also called mAb37746) VH: QVQLVESGGGVVQPGRSLRLSCAASGFTFNNYGMHWVRQAPGKGLEWVAIISYDGSNEYYSDSVKGRFTISRDNSKNTLYLQMNSLRAEDTAVYYCARDQDYGGNLFHYWGQGTLVTVSS VL: not shown |
| 10.2 | 0.0774 | 89.9 | 89 | 6 | – | REGN7971 (antibody, human IgG4 S228P, kappa, V domains shown, fully human; human IgG4 Fc with hinge S108P; also called mAb37763) VH: QVQLVESGGGVVQPGRSLRLSCAASGFTFSTYGMHWVRQAPGKGLEWVAIISYDGSNDYYLDSVKGRFTISRDNSKNTLYLQMNNLRAEDTAVYYCAKDQGYGGNLFASWGQGTLVTVSS VL: not shown |
